Data as given in patent US6808877B2, “Ligands for FPR class receptors that induce a host immune response to a pathogen or inhibit HIV infection” (priority 2000, dated 2004).
Entries after “also recorded” stand apart in the source; their conditions may differ.

Legend:
[1] = molecular target: T1, FPRL1 (Homo sapiens, UniProt P25090); format: cell-based; settings: FPRL1/293 cells; 100 ng/ml, 37° C., 30 min
T1 construct: expressed in transfected cells; host or cells: HEK 293
T1 sequence (P25090 1-351): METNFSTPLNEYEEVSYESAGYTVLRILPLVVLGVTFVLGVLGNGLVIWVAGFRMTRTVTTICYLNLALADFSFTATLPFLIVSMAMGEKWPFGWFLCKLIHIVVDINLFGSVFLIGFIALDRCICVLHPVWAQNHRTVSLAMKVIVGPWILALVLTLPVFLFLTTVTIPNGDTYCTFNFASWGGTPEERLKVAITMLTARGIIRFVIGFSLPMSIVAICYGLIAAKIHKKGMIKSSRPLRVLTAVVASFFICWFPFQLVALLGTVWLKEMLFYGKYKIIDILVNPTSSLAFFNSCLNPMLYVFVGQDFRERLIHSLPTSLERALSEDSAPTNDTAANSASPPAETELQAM

[2] = molecular target: T2, FPR (Homo sapiens, UniProt P21462); assay: Migration of ETFR cells; format: cell-based; settings: ETFR cells
T2 construct: H. Ali and R. Snyderman (Duke University); host or cells: RBL-2H3 rat basophilic leukemia cells
T2 sequence (P21462 1-350): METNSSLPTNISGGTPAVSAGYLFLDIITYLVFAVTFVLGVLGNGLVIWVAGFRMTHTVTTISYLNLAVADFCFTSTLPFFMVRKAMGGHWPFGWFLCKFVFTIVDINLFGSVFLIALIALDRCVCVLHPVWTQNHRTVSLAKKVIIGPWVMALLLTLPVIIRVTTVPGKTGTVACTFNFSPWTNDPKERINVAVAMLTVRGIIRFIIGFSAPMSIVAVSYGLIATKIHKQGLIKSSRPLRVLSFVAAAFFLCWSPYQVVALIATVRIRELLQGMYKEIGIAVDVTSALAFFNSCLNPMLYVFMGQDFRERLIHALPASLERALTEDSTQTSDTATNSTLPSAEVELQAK

[3] = test system: monocytes; assay: Monocyte chemotaxis, 48-well micro-chemotaxis chamber; format: cell-based, human; settings: 37° C., 30 min
[4] = test system: CCR5; assay: CCR5 serine phosphorylation in monocytes (anti-phosphoserine IP, anti-CCR5 immunoblot); format: cell-based, human; settings: for MIP-1β-induced CCR5 phosphorylation after preincubation with PKC inhibitor: then MIP-1β 1 min; for serine phosphorylation of CCR5 / time of maximal CCR5 phosphorylation: human monocytes; for serine phosphorylation of CCR5: 37° C.
Description: Monocytes were isolated by counter-flow elutriation from the peripheral blood of normal donors (NIH Clinical Center, Transfusion Medicine Department, Bethesda, Md.) and enriched for mononuclear cells by using counter-flow elutriation. The purity of the cell preparations was examined by morphology after cytospin, and was >90%. The cells were stimulated with different concentrations of chemokines for indicated time periods at 37° C. and lysed for 20 min on ice with periodic mixing in lysis buffer (1% Triton X-100, 20 mM, Tris-HCl pH 8.0, 137 mM NaCl, 15% glycerol, 5 mM EDTA) containing phosphatase and protease inhibitors (1 mM phenylmethylsulfonyl fluoride, 5 μg/ml aprotinin, 5 μg/ml leupeptin, 1 mM sodium orthovanadate, 1 mM EGTA). Cell lysates were precleared with 30 µl of washed Protein-A sepherose beads (Pharmacia Biotech. Piscataway, N.J.), 1 μg of polyclonal anti-phospho-serine antibody (Zymed Laboratory Inc. South San Francisco, Calif.) was added to 200 μg cell lysates diluted with 2×immunoprecipitation (IP) buffer (1×buffer contains 1%Triton X-100, 10 mM Tris-HCl pH 7.4, 137 mM NaCl, 1 mM EDTA, 1 mM EGTA, 0.2 mM sodium orthovanadate, 0.2 mM PMSF, 0.5% NP-40). The reaction mixture was incubated at 4° C. overnight under constant rocking. The immune complex was captured by adding 50 μl of washed Protein-A sepharose beads (25 μl packed beads) and incubation of the reaction mixture at 4° C. for additional 2 hours. The beads were spun down (10 seconds at 14,000 rpm), the pellets were washed 3 times with ice-cold IP buffer, resuspended in 30 μl of 2×Laemmli sample buffer (126 mM Tris-HCl, 20% Glycerol, 4% SDS, 0.005% bromophenol blue with or without addition of 1% 2-mercaptoethanol, Novex, San Diego, Calif.) and boiled for 5 min to elute the immune complex. After electrophoresis on 4-12% SDS-PAGE precast gel (Novex), the proteins were transferred to Immobilon P membranes (Millipore, Bedford, Mass.). The membranes were blocked in freshly prepared PBS containing 3% dry milk 2 h, then were incubated with 1 μg/ml of polyclonal anti-CCR5 antibody (Millenium Biotechnology, Ramona, Calif.) overnight at 4° C. followed by washing 3 times with PBS containing 0.05% Tween 20. The membranes were incubated with a horse radish-peroxidase conjugated goat anti-rabbit IgG (1:5000) (Sigma, St. Louis, Mo.) in PBS containing 3% dry milk for 1 hour at room temperature with agitation. After washing 3 times with PBS-0.05% Tween 20, the membranes were incubated with Super Signal Chemiluminescent Substrate Stable Peroxide Solution (Pierce, Rockford, Ill.) for 1 min, and exposed to BIOMAX-MR film (Eastman Kodak Company, Rochester, N.Y.).
Monocytes stimulated with different concentrations of stimulants for indicated time periods at 37° C. were lysed for 20 min on ice with periodic mixing in lysis buffer [1% Triton X-100, 20 mM Tris-HCl (pH 8.0), 137 mM NaCl, 15% glycerol, 5 mM EDTA] containing phosphatase and protease inhibitors (1 mM phenylmethylsulfonyl fluoride, 5 μg/ml aprotinin, 5 μg/ml leupeptin, 1 mM sodium orthovanadate, 1 mM EGTA). Cell lysates were precleaned with 30 μl of washed Protein A Sepharose beads (15 μl packed beads) at 4° C. for 1 hour and 1 μg of polyclonal anti-phosphoserine antibody was added to 200 μg cell lysates diluted with 2×immunoprecipitation (IP) buffer [1×: 1% Triton X-100, 10 mM Tris-HCl (pH 7.4), 137 mM NaCl, 1 mM EDTA, 1 mM EGTA, 0.2 mM […], 0.2 mM PMSF, 0.5% NP-40]. The reaction mixture was incubated at 4° C. overnight under constant rocking. The immunecomplex was captured by adding 50 μl of washed Protein A sepharose beads (25 μl packed beads) and incubating the reaction mixture at 4° C. for an additional 2 hours. […]

[5] = test system: monocytes; assay: Ca2+ mobilization of monocytes in response to chemokines after preincubation (heterologous desensitization); format: cell-based, human; settings: staurosporine 2.5 ng/ml 30 min
Description: Calcium mobilization was measured by incubating monocytes (2×10^7/ml) in loading medium (DMEM, 10% FCS) with 5 μM Fura-2 AM (Molecular Probes, Eugene, Oreg.) for 30 min at room temperature in the dark. The dye-loaded cells were washed 3 times and resuspended in saline buffer (138 mM NaCl, 6 mM KCl, 1 mM CaCl2, 10 mM Hepes pH 7.4, 5 mM glucose, 0.1% BSA). The cells were then transferred into quartz cuvettes (2×10^6 cells in 2 ml) which were placed in a luminescence spectrometer (LS-50B, Perkin-Elmer, Beaconsfield, UK). Stimulants at different concentrations were added in a volume of 20 μl to each cuvette at the indicated time points. The ratio of fluorescence at 340 and 380 nm was calculated using a FL-WinLab program (Perkin Elmer). To examine the effect of fMLP, monocytes were preincubated with 10^−6 M fMLP or with medium alone for 60 min at 37° C. The cells were thoroughly washed and then were stained with Fura-2 for the calcium mobilization desensitization. The results are representative of at least three experiments performed.
(§1) Calcium mobilization was measured by incubating 2×10^7/ml cells in loading medium (DMEM, 10% FBS) with 5 μM Fura-2 AM (Molecular Probes, Eugene, Oreg.) for 30 min at room temperature in the dark. The dye-loaded cells were washed 3 times with loading medium and resuspended in saline buffer [138 mM NaCl, 6 mM KCl, 1 mM CaCl2, 10 mM HEPES (pH 7.4), 5 mM Glucose, 0.1% BSA] at a concentration of 1×10^6/ml. The cells were then transferred into quartz cuvettes (2 ml) which were placed in a luminescence spectrometer (LS-50B, Perkin-Elmer, Beaconsfield, England). Stimulants at different concentrations were added in a volume of 20 μl to each cuvette at the indicated time points. The ratio of fluorescence at 340 and 380 nm wavelength was calculated using a FL WinLab program (Perkin-Elmer).

[6] = test system: monocytes; assay: Ca2+ mobilization in monocytes (Fura-2); format: cell-based, human
Description: as §1
Calcium mobilization was assayed by incubating 2×10^7/ml of monocytes, neutrophils, FPRL1 or FPR transfectants in loading buffer containing 138 mM NaCl, 6 mM KCl, 1 mM CaCl2, 10 mM HEPES (pH 7.4), 5 mM glucose, 0.1% BSA with 5 μM Fura-2 (Sigma) at 37° C. for 30 min. The dye-loaded cells were washed and resuspended in fresh loading buffer. The cells were then transferred into quartz cuvettes (10^6 cells in 2 ml) which were placed in a luminescence spectrometer LS50 B (Perkin-Elmer Limited, Beaconsfield, England). Stimulants at different concentrations were added in a volume of 20 μl to the cuvettes at indicated time points. The ratio of fluorescence at 340 and 380 nm wavelength was calculated using the FL WinLab program (Perkin-Elmer).

[7] = test system: CCR5; assay: Surface expression of CCR5 on monocytes by flow cytometry; format: cell-based, human; settings: FITC-anti-CCR5 2D7
Description: The change of surface expression of CCR5 on monocytes was monitored by FACS analyses (courtesy of L. […] The cells were then washed twice with DPBS containing 2% BSA and fixed with 1% Paraformaldehyde (Sigma). The fluorescence was measured by flow cytometer (Becton Dickinson, San Jose, Calif.). Results are presented as the percentage of cells stained with anti-CCR5 antibody.

[8] = test system: CCR5; format: cell-based, human; settings: HOS/CD4/CCR5 cells co-expressing FPR

| Molecule | serine phosphorylation of CCR5 [4] | Ca2+ mobilization [6] | expression of CCR5 on the cell surface [7] | time of maximal CCR5 phosphorylation [4] [min] | also measured |
| --- | --- | --- | --- | --- | --- |
| pertussis toxin | – | – | – | – | W peptide induced migration after pretreatment of the cells [1]: inhibited; W peptide induced migration after pretreatment of the cells [2]: inhibited; chemotaxis response to V3 peptide after preincubation of the cells ([3]; human phagocytes, 100 ng/ml): inhibited; migration in response to W peptide after pretreatment of the cells ([3]; phagocytes, 100 ng/ml toxin): completely inhibited |
| CN[C@@H]1C[C@H]2O[C@@](C)([C@@H]1OC)n1c3ccccc3c3c4c(c5c6ccccc6n2c5c31)C(=O)NC4 [staurosporine] | – | – | – | – | MIP-1β-induced CCR5 phosphorylation after preincubation with PKC inhibitor ([4]; monocytes): did not affect; V3 peptide-induced CCR5 phosphorylation after pretreatment with PKC inhibitor ([4]; monocytes, staurosporine 2.5 ng/ml 30 min, then V3 peptide 1.5 μM 60 min): no longer significantly induced phosphorylation of CCR5; Ca2+ mobilization in response to RANTES or SDF-1α after PKC inhibitor followed by V3 peptide [5]: almost normal Ca^2+ mobilization |
| T20/DP178: synthetic peptide corresponding to a region in the C-terminus of the ectodomain of gp41 | significant and dose-dependent phosphorylation of CCR5 | – | – | – | – |
| calphostin C | – | – | – | – | MIP-1β-induced CCR5 phosphorylation after preincubation with PKC inhibitor ([4]; monocytes): little effect; fMLP-induced CCR5 phosphorylation after preincubation with PKC inhibitor ([4]; monocytes, calphostin C 50 ng/ml 2.5 h, then fMLP 10^−6 M 60 min): markedly reduced |
| MCP-1: chemokine | – | significant Ca^2+ mobilization | – | – | – |
| SDF-1α | – | significant Ca^2+ mobilization | – | – | – |
| SAA: serum amyloid A, recombinant, purchased from Pepro Tech (protein, UniProt P0DJI8 19-122, looked up) Serum amyloid A-1 protein: RSFFSFLGEAFDGARDMWRAYSDMREANYIGSDKYFHARGNYDAAKRGPGGAWAAEVITDARENIQRFFGHGAEDSLADQAANEWGRSGKDPNHFRPAGLPEKY | significant and dose-dependent phosphorylation of CCR5 | – | – | – | – |
| MIP-1β: chemokine, CCR5 agonist (protein) APMGSDPPTACCFSYTARKLPRNFVVDYYETSSLCSQPAVVFQTKRSKQVCADPSESWVQEYVYDLELN | rapidly phosphorylated | poor inducer of Ca^2+ flux | downregulated | 1 | – |
| RANTES: chemokine that activates multiple receptors including CCR5 (protein, UniProt P13501 24-91, looked up) C-C motif chemokine 5: SPYSSDTTPCCFAYIARPLPRAHIKEYFYTSGKCSNPAVVFVTRKNRQVCANPEKKWVREYINSLEMS | rapidly phosphorylated | induced a transient rise in Ca^2+; also recorded: significant Ca^2+ mobilization | downregulated | 1 | – |
| MIP-1α: chemokine that activates multiple receptors including CCR5 (protein, UniProt P10147 24-92, looked up) C-C motif chemokine 3: SLAADTPTACCFSYTSRQIPQNFIADYFETSSQCSKPGVIFLTKRSRQVCADPSEEWVQKYVSDLELSA | rapidly phosphorylated | induced a transient rise in Ca^2+ | downregulated | 1 | phosphorylation of CCR5 [8]: induced an increase in phosphorylation of CCR5 |
